What all share (assay): equilibrium binding isotherms of eEF2 on ribosomes
Assay [1] concerns the target wild-type yeast ribosomes (salt-washed), with wild-type ribosomal protein L3 (S. cerevisiae) (UniProt P14126).
In assay [2] the target is yeast ribosomes (salt-washed) with ribosomal protein L3 mutant S2A (S. cerevisiae) (UniProt P14126).
Assay [3] concerns the target yeast ribosomes (salt-washed) with ribosomal protein L3 mutant S2K (S. cerevisiae) (UniProt P14126).
For assay [4], the target named is yeast ribosomes (salt-washed) with ribosomal protein L3 mutant S2T (S. cerevisiae) (UniProt P14126).

As for “6 × His-tagged eEF2 (elongation factor 2) (from UniProt P32324 1-842) (natural protein)”, the dissociation constant Kd (in general, the concentration at which binding is half-saturated) was 18.7 nM in assay [1], 19.9 nM in assay [2], 20.4 nM in assay [3] and 20.7 nM in assay [4].
